According to the DeepSol protein solubility set:

Experiment: soluble on expression in E. coli; label from the status in PepcDB or PDB records

Row | Sequence | soluble on expression in E. coli
1 | MGSDKIHHHHHHMFHPIEEALDALKKGEVIIVVDDEDRENEGDFVALAEHATPEVINFMATHGRGLICTPLSEEIADRLDLHPMVEHNTDSHHTAFTVSIDHRETKTGISAQERSFTVQALLDSKSVPSDFQRPGHIFPLIAKKGGVLKRAGHTEAAVDLAEACGSPGAGVICEIMNEDGTMARVPELIEIAKKHQLKMITIKDLIQYRYNLTTLVEREVDITLPTDFGTFKVYGYTNEVDGKEHVAFVMGDVPFGEEPVLVRVHSECLTGDVFGSHRCDCGPQLHAALNQIAAEGRGVLLYLRQEGRGIGLINKLKAYKLQEQGYDTVEANEALGFLPDLRNYGIGAQILRDLGVRNMKLLTNNPRKIAGLEGYGLSISERVPLQMEAKEHNKKYLQTKMNKLGHLLHF | not soluble
2 | MTNWLIAYQGEPGAYSEIAALRFGEPLPCESFDDVFSAVTEQKADYAVIPIENSLGGSIHQNYDLLLRRPVVILAETFVKVEHCLLGLPGASVETATKAMSHPQALVQCHNFFATHPQIRAEAAYDTAGSAKMVAESRDKSALAIASKRAGELYGLDILKENLADEEWNITRFFCIAHENNPDISHLKVRPDVARQKTSIVFALPNEQGSLFRALATFALRGIDLTKIESRPSRKKAFEYLFYADFIGHREDQNVHNALENLREFATMVKVLGSYGVVNP | soluble
3 | MLTKVIEQAKIDHFTKWFERADKIVIVSHVSPDGDAIGSSLGLYHFLDSQEKTVNVIVPNAFPDFLRWMPGSKDILLYDRYKDFADKLIAEADVICCLDFNALKRIDEMADAVAASPARKVMIDHHLYPEEFCKITMSYPKISSTSELIFRLICRMGYFSDISKEGAECIYTGMMTDTGGFTYNSNNREIYFIISELLSKGIDKDDIYRKVYNTYSESRLRLMGYVLSNMVVYSDYNAALISLTKEEQSKFDYIKGDSEGFVNIPLTIKNVCFSCFLREDTEKPMIKISLRSVGTFPCNQLAAEFFNGGGHLNASGGEFFGTIEEAKAVFEQALEKYKPLLTAKSLEHHHHHH | soluble
4 | MTDKQAIREQMWQEMTEKKVGRFPFPLKGRIPNFKGAEQATRHLIQLEAYKQAKVVKVNPDSPQLPLRAQVLMDGKTLLVPTPRLKDGFILVKPEWVPEGEERKAVSLRNILSYGKVISLTEMPEIDLIVMGSVAVDRSGRRIGKGEGYADREYAIIRELGNRPVPVVTTVHQVQLVDVELPRDAYDVTVDWIATTEGLMQSVGAIEKPTGIVWSEVTEEELEAMPVLREIRELTKRQLEHHHHHH | soluble
5 | MSLESGELIGACEFMKDRLYFATLRNRPKSTVNTHYFSIDEELVYENFYADFGPLNLAMVYRYCCKLNKKLKSYSLSRKKIVHYTCFDQRKRANAAFLIGAYAVIYLKKTPEEAYRALLSGSNPPYLPFRDASFGNCTYNLTILDCLQGIRKGLQHGFFDFETFDVDEYEHYERVENGDFNWIVPGKFLAFSGPHPKSKIENGYPLHAPEAYFPYFKKHNVTAVVRLNKKIYEAKRFTDAGFEHYDLFFIDGSTPSDNIVRRFLNICENTEGAIAVHCKAGLGRTGTLIACYVMKHYRFTHAEIIAWIRICRPGSIIGPQQHFLEEKQASLWVQGDIFRSKLKNRPSSEGEGHHHHHH | soluble
6 | MSLENLQTNFSLVQGSTKKLNGMGDDGSPPAKKMITDIHVNGKTINKVPTVKKEHLDDYGEAPVETDGEHVKRTCTSVPETLHLNPSLKHTLAQFHLSSQSSLGGPAAFSARHSQESMSPTVFLPLPSPQVLPGPLLIPSDSSTELTQTVLEGESISCFQVGGEKRLCLPQVLNSVLREFTLQQINTVCDELYIYCSRCTSDQLHILKVLGILPFNAPSCGLITLTDAQRLCNALLRPREGHHHHHH | soluble
7 | MGSDKIHHHHHHLLQRTFNIQHHSSLPLLSILSYFPTSLLKPGGRMAIVLPQGRFNNSSDKNIRDFIAERCRILAVVGLHGNTFKPHTGTKTSVLFVQKWNDDPKAGALCPRQDDYNIFFATMRKSGKDNSGDKIWRKISSSTASPPDDELSDLMPPSPVQRVVGVEGDFLRDNHEHLVVDHDLYNHEGKTEDGIAEAFIEFAKKENFSFFELSPSVTPFDAVKYQQLMDGLEAVEVSLNQALDHNLHFRFDSEFFKRIYFQVEAEIKALPHTRLSSTQPIIIHPTEIKREYVEDDSSGVLFFRTQNLRPLRVDLSNQVYISEEDAAKLSKNIIQKNDVLITITGANFGDTLIFKGEIEAIALSHVFILRNKKISQSFLAVFLNTFYGREQINKGMYGGV | not soluble
